This passage reports Mean % WT Binding results from patent US20260242735A1.

This test has as its target human CD33 L275A (human) (UniProt P20138). Kind of test: flow cytometry, HEK293-T, alanine scan. Background: Flow cytometry measures light scatter and fluorescence of single cells or particles in a stream.

Sequence of human CD33 L275A (human) (P20138 18-364 L275A limits assumed): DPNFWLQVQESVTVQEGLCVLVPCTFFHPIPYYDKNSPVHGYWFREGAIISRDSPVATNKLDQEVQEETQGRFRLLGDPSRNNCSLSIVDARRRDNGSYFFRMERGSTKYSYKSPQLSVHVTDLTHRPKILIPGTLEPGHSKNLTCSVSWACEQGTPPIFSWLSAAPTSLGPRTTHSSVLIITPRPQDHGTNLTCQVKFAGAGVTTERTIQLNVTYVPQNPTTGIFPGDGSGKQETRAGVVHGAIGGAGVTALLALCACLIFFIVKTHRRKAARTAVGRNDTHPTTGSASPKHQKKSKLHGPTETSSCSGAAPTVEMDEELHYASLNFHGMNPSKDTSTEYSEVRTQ

Take Refmab #7 (WM53) (antibody): the Mean % WT Binding amounted to 106 % WT binding.
